Results taken from article PMC5103296, “New structural insight of C-terminal region of Syntenin-1, enhancing the molecular dimerization and inhibitory function related on Syndecan-4 signaling” (Scientific Reports, 2016).
Like-named read-outs stand apart in the source and are kept apart here. One block for each molecule: values may come before it.

Key:
syndecan-4-YFP = syndecan-4-YFP (UniProt P34901); assay: FRET or BRET; FRET after acceptor (YFP) photobleaching in REFs expressing syndecan-4-YFP and PKM-CFP
[1] = molecular target: the molecule itself; assay: crystal structure; syntenin-1 mixed with 4C2 at a 1:4 molar ratio; micro batch under oil; 0.2 M lithium sulfate monohydrate, 0.1 M Tris hydrochloride pH 8.5, 30% PEG 4000; 2.8 Å
[2] = molecular target: the molecule itself; assay: SEC; HiLoad 16/600 Superdex 75; 20 mM sodium phosphate, 100 mM NaCl, 0.01% NaN3, 5 mM dithiothreitol, pH 7.0; mass from calibration with standards
[3] = molecular target: the molecule itself; assay: as above; remark: listed apart in the source
[4] = molecular target: T1, syntenin-1 PDZ2 construct containing the C-terminal tail (PDZ2C); assay: as above; conditions: both partners purified
T1 chain: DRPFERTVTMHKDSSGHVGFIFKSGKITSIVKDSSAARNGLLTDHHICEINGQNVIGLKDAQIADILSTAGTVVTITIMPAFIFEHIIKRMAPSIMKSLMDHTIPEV

Sequence of syndecan-4-YFP (P34901 24-202): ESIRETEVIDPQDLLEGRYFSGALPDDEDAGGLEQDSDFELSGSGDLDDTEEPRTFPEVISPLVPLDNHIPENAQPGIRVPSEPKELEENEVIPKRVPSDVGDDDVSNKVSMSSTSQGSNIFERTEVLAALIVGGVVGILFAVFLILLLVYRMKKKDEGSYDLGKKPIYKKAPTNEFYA

B1: syndecan-4 cytoplasmic domain peptide corresponding to the C2 region (4C2) (peptide)
peptide: APTNEFYA
notes: C2 region of the cytoplasmic domain of rat syndecan-4, residues 195-202; Seen as a dimer in the crystal of the syntenin-1/4C2 complex; also called syndecan peptide; source: synthetic peptide (Anygen Inc.)
binding result [1]: binds

B2: His-tagged syntenin-1 (His-STN) (domain or fragment)
chain: AEIKQGIREVILCKDQDGKIGLRLKSVDNGIFVQLVQANSPASLVGLRFGDQVLQINGENCAGWSSDKAHKVLKQAFGEKITMTIRDRPFERTVTMHKDSSGHVGFIFKSGKITSIVKDSSAARNGLLTDHHICEINGQNVIGLKDAQIADILSTAGTVVTITIMPAFIFEHIIKRMAPSIMKSLMDHTIPEV
notes: syntenin-1 (STN), recombinant construct with PDZ1, PDZ2 and the C-terminal region; printed M.W 21.8 kDa; The residue numbers (H210, V211) fit the rat protein (surmised); also called STN-1; source: recombinant, purified (Ni-NTA)
stoichiometry N [2]: 2 | stoichiometry N [3]: 2

Second part, the molecule after the results:

FRET efficiency (syndecan-4-YFP): 6.39%
Molecule: PKC catalytic domain (PKM)-CFP (domain or fragment)

stoichiometry N [4]: 2
B3: syntenin-1 PDZ2 construct containing the C-terminal tail (PDZ2C) (domain or fragment)
chain: DRPFERTVTMHKDSSGHVGFIFKSGKITSIVKDSSAARNGLLTDHHICEINGQNVIGLKDAQIADILSTAGTVVTITIMPAFIFEHIIKRMAPSIMKSLMDHTIPEV
modifications: limits not given; same start as PDZ2 through the native C-terminus, consistent with the printed 11.7 kDa; homodimer by gel filtration / limits not given; same start as PDZ2 through the native …
